Assay results taken from the domain aggregation screens of Martell et al. (2025).

Experiment: soluble fraction after stress (log2 fold change); higher = more stays soluble; pooled small domains, quantitative proteomics
Conditions: stress: 75 degC
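Further: 20 min heating vs room temperature control held 20 min.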

| Sequence | soluble fraction (log2) |
| --- | --- |
| HMAAEGARNNSLFNSLRERALEVSSHNELEQIAFKMNETNIPPLRASEVISVVNSVWKNRISNQIIP | 0.266 |
| HMAAFGDLLSELRRDMNMTQDELAKVLFVSPGTISNYENNIHFPDVPKLKQIAQYFGVTTDYLLG | -0.519 |
| HMAAINTYQVRKIYAIAGALGMKSRDGDDALHDLVFGMTGKQHISGLTSAEAYDVIAELEKKQ | -1.6 |
| HMAALKVAVLTVSDTRTQETDTSGAFLEGALREAGHEIADRQIVIDDVYQLRAIVSQWIADPEVEVILT | -0.121 |
| HMAALTADEAKQIALKHAGVAESDVQRLKVEQDRDDGRLLYEVEWDVGRTEYSYEIDANTGDILNYEKDV | -0.000944 |
| HMAANKIDEDRNTELLQVIQNKFPDADAATKKSVKEIMKEHDIPNFKNADDIPTAVLEQIVKVLNQ | -0.378 |
| HMAAPLTDRETEVLTLLARGLINKQIAEELHIGLTTVITHRRNIMEKLRVRSLAELILRAVAAGYVDAGR | -1.79 |
| HMAARKDLIAGEDAEGRLDAWLAAALDGEFSRNRVKALIEQGAVAINDVAVTEPKRKIRPGDRLSIVLPEP | 0.325 |
| HMAARLMRALIPYAQGGLLAKLHEDGQVLSEEYTGEGIEVKALADEQLFGRLTVQLGEQAVSWQD | -0.163 |
| HMAASTPGTVTGSVVNVRPDPSTNNDRIGVIYQGTKVEILAQVGEWYNIQFGPVSGWVHKDYISTGA | -0.421 |
| HMAATISPEIQAEAEKAAALGVESIKNFMASLKEKNPEQHALFSDSEKRRLYAIARKADLNTTQQG | 0.595 |
| HMAAVPQPQRSETIVYIGGRKFYVHTVQAGETLYSIARLYGVSEQTLVANNPTMADVVKADQNVRIPVPA | -1.96 |
| HMAAYRLIPLGNSNKDFETYQEAIQYMRDKLDESSKAFEEGKQNWVYSGRVYGVPWSDGRTTFTVDLVPKV | 0.594 |
| HMADASVTAYFKIAEDRLQGRLPDTFSEASLKARYQLTPAQLTAVLTRIAQEGWAERKPGYGWAFSSML | -1.62 |
| HMADEIMYPVQVNGKVRAEIFVAADQSKNKELVLEMAKSEERVQKYLEEGNLIKEIFVPGRIVNLVI | 0.162 |
| HMADEIQIGLQKAIQSLPEKQKLVFSMRYYDEIPYDEMSKILDMSVGTLKTNYHYAKQKIEDFLQNH | -1.22 |
| HMADFIGMNATVTERIFPQGFGRISFVYEGNSISEPARSEDGKEIPTGTSVVVLEVRDKVYIVQPL | -2.35 |
| HMADGDIIPEGQRDATLASLAGSMRARGMTEAEILAALQVTNETRVRPPMALADLERIARSIGRYEPGK | 0.0569 |
| HMADKGTITNQQEKILKALILFPEGASIEEIQKAADLGIDKRQFQRRLNTLIESGQINRTGKSRGTKYHTI | 0.201 |
| HMADLKVGFVHRAGSVLERELDDVLEALEMYRSALAIDPSHKPSLDALTRISQLADYREQAAEILEPLPR | -0.767 |
| HMADLNFHQQIRSLPPEQQEILLLRFGQELTLRQIAQVTGVPLRTVQSRLRAALKKLKSQLEKEE | -0.696 |
| HMADLPQATALADVKGDVQMQGIQFGYDPEKIIIHDLNLHARPGSLVAIVGPTGAGKTTIINLLMRFYD | -1.75 |
| HMADLVYLRKRLQDAIAQLPEDMRTAYTLFQIARRSIREIAELTGASESLVKVRIHRAKGKLQELLEDLR | -2.57 |
| HMADPAVLIAELFRAMPEKRFSVKNLISATGAETREQKDYVREVVHSLSREGMIEQVAEGKYRLSASE | 0.299 |
| HMADQVLVMTRAVGQGDIVRNADIGLTSVAVDRAVATIPASQLDKIVGRHALVDLSPGQLLGSHSVGE | 0.147 |
| HMADRDKYIIMGQQLLRAAFEHFGKKATDKALENAANKLRISDVPELYARLGSAELQPRDVINVIFPD | -0.308 |

| Sequence | soluble fraction (log2) |
| --- | --- |
| HMADRLITLSEVASLLRVSRHTVQAWISPSSPNHRPEFAIMARHAGRRTVFIEAEVTAWLDQRRG | -2.14 |
| HMADVSPEAQHKMVEAFAQFGVTKEHIEQRIQRRLDAIQPAQMVTLKRIFASLRDGMSTPAEWFE | -0.639 |
| HMADYSGYLGKKGKVIAPLRPAGTALIDGERVDVVSFGDYIDKDSEIEVVKIEGSKLLVKKY | 0.28 |
| HMAEAIVMSTAAPVKSSPDPQSKDIFVLHEGTKVAVGDSLGDWREIRIADGNKGWVLVSAIEMI | 0.0397 |
| HMAEDGNMTFEEYAKRWLARQVRYAPSTLESYRRMLGRVYPFIGAIPINRLRPIALENLLAELRKRT | -0.582 |
| HMAEEFESMTEARRLELARLVDSRGFVRVTDAAEELGVSDVTIRGDLSELERRGLLTRVHGGAMPVT | -0.00431 |
| HMAEKEYYYATDALNLRQGPGMEHTVKGEVVLGERVALLGLEGKWAKIQNAQGTTGYVFSAYLAPS | -0.196 |
| HMAEMLENQLKHAKSKQEANEYIAAAIGGVSDDDPDKEYLVAAYNEISKEFHHSSAYHRLPDT | 0.16 |
| HMAEMRYLDQIYEVNVPLPDLSLEDGDLLARWAVNFHQRYEELFSYRQSDQEIRLVTLRVTVLGELP | -0.65 |
| HMAENMNAALRVSSLINQIGTVNAKAKDRIESARKAYDALSEAQKAYVANLTTLETAETSLSKL | 0.0786 |
| HMAENTIPSVIGKTLSDATFLLESYGYERGGVSEEYSEMPKGVVIRQSPQAGSSADPGTKVNLVVSLGEEI | 0.538 |
| HMAENTKKWDETGRRYRSYIKLEKRLSENTVESYMRDYMQFAHFILRQWDVAPHKVEPQMVERYMAWLYER | -0.795 |
| HMAEPIAAGKYTVSTSGSVLNMRVSPDADSQVLEKIPNGTIVEVTKSVLGWAYVTYNSAQGWVSSAYLV | -1.62 |
| HMAEPLMTQIVEIEYADAEGLRENLEQFLTRLDEKTLLGSVLVDRHTNSLIIQAVRSDLERMLPLIETLDR | -0.804 |
| HMAEPLYKQVKNKIIQNLTSDEWKPGSVIPSETKLAETYGVGVSTIRMAIGELVAARILIRRQGKGTFVSS | -2.1 |
| HMAEQDILQSVYPHIGGQDNVSRTISRNGTLYLMLKDASAVDLKAVKQVPGIADAALERGRLTLQLEE | -0.203 |
| HMAEQLGNSRTANMVMLGAMIERTGVISIDSAMEALKATFGPKKEHLLPINRQAMEAGAAAARAV | 0.104 |
| HMAERVWASLLEIKNAVAIEDAKTLEDVDNSEKIAEERIAALNDDAKHPLAIAFIGKLRQDIAEKKIELA | 0.413 |
| HMAESSPYTVRPGDTLWKILAQTQNARYNDFPYLYRKFRELNPNITDLNHIVSGQKIIVPHIPG | -0.331 |
| HMAESTRSRILNAAIEMMETGGESSVRLSAIAEALGIKEPSIYHHFTNRTELVNAAYIEWYW | -1.07 |
| HMAEVDREEALRIALAHAAVARRDVRNLKIERGEENGVPVYKVEFETAFGDFDVAVSRRSGDVVDAD | -0.0382 |
| HMAEVIYGAGKTPAQMLGILRTMQAHGQKTVLITRLREEAAEEIGREIPLQYDKTAGVGIVGTLPQPDG | -0.102 |
| HMAEVPSLIGKSLDAAKQAIIDAGFKVGSVSYDNSDSYGKGQVMWQQYEPSTKVKKGSSISIKVSKGS | -0.00107 |
| HMAEVRTLLVPIELAGMRFDQVLAELLPEFSRSRLAAWIKSGDALLDGHDAKPKGVVRGGEQIEIRLA | -0.0127 |
| HMAFAVWVKLVAIGPNYAQLEIEQGTQRNVRTLRPGDDAPEGVRLLSLTPTHAEVQANGIARKLALGQGMA | -3.22 |
| HMAFDESLVRSIQELLSELGYSPGKIDGLLGAKTVAAIKAFELEINKDQLTGEPSEELLIALQLAIRSSKM | -1.81 |

| Sequence | soluble fraction (log2) |
| --- | --- |
| HMAFDGIVLKNITNALKELINGKINKIQQSSKDNLTLSIYNQKSYNLYIDISANNYRVNLTTHSE | 0.126 |
| HMAFDYETYQLTSREFSIIELVADGRSNREIAEALYLGEGTVRNYLSSILEKLELRDRTQLAVFFYQHL | -2.3 |
| HMAFIEIMTEGDADGRGFQYPIPTYSITRDFDWSETENNKLLFEMTAKYGTPYFSNYINSDMEPSDV | -1.13 |
| HMAGAITEREVEVLELLSRGLGNKEIAKELFVSEATVKSHLSHIYTKLAVDTRAGAVAAAIERRIIRAWR | -2.99 |
| HMAGASQAVKAQLRLREMILAGELPGGARIAELTLVEKLGVSRTPIRAALMRLEQEGLLHRLPGGGYAVRT | -2.27 |
| HMAGDDEIEKIAQDILAAWPDKVAAYQAGNKGLMGLFMGELMKKSQGKANPKVASGIIQKLLD | 0.0201 |
| HMAGEDPANLELMRLMDEEYMEHPTKGVLGMVDFLRALGILTGPKRVRRLLRKMGIMAIYPK | 0.159 |
| HMAGGVFELTGKVTADAKAGDLVYVKAATGAGTKPVVTTVKTGADVIIGWLKEPVSSASVDQKMQVVLA | 0.267 |
| HMAGITLHAEEGRVRIRSQSEGLVKVLDAMGREQASWPLRSKGWWFFLTEGWAPGTYFVKTESGETQRFLV | 0.274 |
| HMAGNNTATKEIAELLIAKGADVNAMNLSPPGREIGGMTPLDMAILGNRNEIADLLRKHGGRTQKELKAE | 0.262 |
| HMAGPGAEVVDRLIAVLTGERPATAADQVLLSILKGLGIGGVVLPSERTGLGWSGLYQRVKEITDMN | -1.61 |
| HMAGPRRRLLDAAIDRAAERGLGDLSLRALAEELGTSHRMLSHHFGSKDGLWLAIVEEVERRQ | -1.08 |
| HMAGSTAASKHALALLNTARHSIRDGNLTSAAAEIKQALATSQEQIVITEARSLMTAMEARATTRRATVLQ | -0.41 |
| HMAGTAMRATTAVNVRSGAGTNYSRIGLLQAGEQIQALSSKNGWTQVSYKGRTGYVASAYLASL | -2.57 |
| HMAGTGKVNTGVANVRSGPGTNYEISGKIYADTEVSILETSNGWYKIKFGNLTGWMSGTVLDIK | -0.902 |
| HMAGTPAVVKWFNPTKGFGFVTPREAGSDALLHASVLAKQGKRWLQEGTVVEVVLEEGPKGLVVSEVLTIE | -0.457 |
| HMAGWMPGGTNPAEPGRFAVLMDVDDSDAYKHMFLRWNGHAWEFERTRVLVKMEPSWWMRLPDDPEKP | -3.16 |
| HMAHKRVDGTIVTPLTADTIVLRTGTHGEQPFEIRDTTRHKLESLQKGDMVILLIDTDNKVIDVAIPP | 0.373 |
| HMAHYYVRNGYYYYQRRIPLDLRKFYSGANIKASLKTKDPAIAALFVAKFDRQYDAEFAQRRLNPD | -0.533 |
| HMAIELIDLIKNPETAPFSKLKYLKWMPEAEVTGFFNNLFQLNVTARETGDWSTVDKFLEDEGDRIAAQVA | -0.0284 |
| HMAIEMSTITKRVTSTGEIRYRALLQIRREDVNYTESRTFSKKSLAEAWLKKREVELEANPELLHQ | -3.44 |
| HMAIGERIRFLRTLRRMTQKELGLAAGFPEKNASIRMAQYENGTRTPKAELTAVLAEILKVSPQALTV | -1.52 |
| HMAIKNKNEQLEAIIKFADLRGEFKTADIEELLSIKSSRARLLISELVKIGKLESIGSNRNRRYHIK | -0.974 |
| HMAIKTGAVTGHGVKVRKGPSTNEKAIHDVLYGSRLQILEEKNGFLKAKFEDGTTGWISKQFVTTTDKNLL | -0.0233 |
